Measured values as given in patent US9809653B2, “Anti-LAMP1 antibodies and antibody drug conjugates, and uses thereof” (SANOFI, priority 2012, dated 2017).
Entries after “also recorded” stand apart in the source; their conditions may differ.

T1: human LAMP1 expressed at the cell surface of recombinant HCT116 (HCT116 huLAMP1 clone 8) (Homo sapiens, UniProt P11279)
T1 construct: full length human and cynomolgus monkey LAMP1 expressed at the cell surface of a recombinant cell line, wherein the cell line may be HCT116; expressed in transfected cells
T1 sequence (P11279 29-417): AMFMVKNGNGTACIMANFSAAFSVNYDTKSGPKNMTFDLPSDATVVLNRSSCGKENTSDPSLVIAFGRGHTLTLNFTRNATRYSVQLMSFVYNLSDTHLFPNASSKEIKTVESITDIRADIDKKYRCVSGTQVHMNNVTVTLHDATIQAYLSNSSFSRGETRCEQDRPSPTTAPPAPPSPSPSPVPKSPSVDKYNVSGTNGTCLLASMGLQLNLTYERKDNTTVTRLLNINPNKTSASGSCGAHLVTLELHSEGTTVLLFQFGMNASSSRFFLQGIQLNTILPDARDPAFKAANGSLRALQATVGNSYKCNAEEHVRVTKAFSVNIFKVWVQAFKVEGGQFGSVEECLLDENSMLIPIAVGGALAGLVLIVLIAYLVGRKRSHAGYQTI

T2: Mouse LAMP1 (Mus musculus, UniProt P11438)
T2 construct: made in house; host or cells: HEK293 (293-F), transient expression, IMAC-purified
T2 sequence (P11438 with tags, fused parts or gaps): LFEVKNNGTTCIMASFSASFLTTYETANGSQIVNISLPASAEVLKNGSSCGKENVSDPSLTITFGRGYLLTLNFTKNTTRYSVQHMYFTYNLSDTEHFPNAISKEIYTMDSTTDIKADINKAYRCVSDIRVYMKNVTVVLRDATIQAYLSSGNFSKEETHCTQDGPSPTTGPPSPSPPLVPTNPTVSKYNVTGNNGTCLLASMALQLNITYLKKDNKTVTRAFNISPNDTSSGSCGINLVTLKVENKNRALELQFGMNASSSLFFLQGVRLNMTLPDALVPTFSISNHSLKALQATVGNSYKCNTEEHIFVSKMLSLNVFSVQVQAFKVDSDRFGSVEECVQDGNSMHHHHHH

T3: hLAMP1_ΔGYQTI (Homo sapiens, UniProt P11279)
T3 construct: expressed in transfected cells; host or cells: 293-F (HEK293-derived), transient transfection, plasmid pXL5626
T3 sequence (P11279 with tags, fused parts or gaps limits assumed): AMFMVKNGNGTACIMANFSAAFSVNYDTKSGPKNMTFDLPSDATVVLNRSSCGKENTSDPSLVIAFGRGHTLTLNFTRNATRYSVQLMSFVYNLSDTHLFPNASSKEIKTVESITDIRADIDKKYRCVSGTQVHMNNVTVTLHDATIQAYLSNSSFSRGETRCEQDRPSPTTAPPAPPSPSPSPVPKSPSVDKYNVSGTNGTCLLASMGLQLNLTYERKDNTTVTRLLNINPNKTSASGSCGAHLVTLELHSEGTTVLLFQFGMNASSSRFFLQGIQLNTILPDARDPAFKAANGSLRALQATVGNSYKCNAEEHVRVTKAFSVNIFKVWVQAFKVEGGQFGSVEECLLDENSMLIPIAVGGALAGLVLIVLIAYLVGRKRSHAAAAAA


Experiments:
[1] = biological target: T1, human LAMP1 expressed at the cell surface of recombinant HCT116 (HCT116 huLAMP1 clone 8); assay: FACS on recombinant HCT116 stable clones expressing human LAMP1; type: binding
Description: HCT116 cells were infected by a lentiviral vector allowing stable integration of the human or the cynomolgus LAMP1 CDS in genomic DNA of cells. Individual clones with different densities of human or cynomolgus LAMP1 cell surface localization were derived from a pool of HCT116 infected cells. […] 100 μL/well of goat anti-human IgG conjugated with Alexa488 (Invitrogen; #A11013) was added for 1 h at 4° C. and washed two times with PBS 1% BSA. The antibody binding was evaluated after centrifugation and resuspension of cells in 100 μl fixing solution (paraformaldehyde at 4% in PBS). Samples were read using Galaxy® Flow Cytometry System (Partec). EC50 values were estimated using BIOST@T-SPEED software.
100 μL/well of goat anti-mouse IgG conjugated with Alexa647 (Invitrogen; #A2135) was added for 45 min at 4° C. and washed three times with PBS 1% BSA. The antibody binding was evaluated after centrifugation and re-suspension of cells by adding 200 μl/well PBS 1% BSA and read using Guava® easyCyte™ 8HT Flow Cytometry System. EC50 values were estimated using BIOST@T-SPEED software.
HCT116 stable clone was obtained as described above. […]
DM4-SPDB-huMAb1_1 was assessed by flow cytometry for its ability to bind to human LAMP1 or cynomolgus LAMP1 proteins expressed respectively at the surface of HCT116 or HEK293 stable clones, both obtained as described in the protocol of example 4.7. […]

Mouse LAMP1 = biological target: T2, Mouse LAMP1; assay: ELISA on mouse LAMP1 extracellular domain; type: binding
Source text: The high level of glycosylation of the antigen required a specific approach to determine the binding site of the anti-LAMP1 mAbs on LAMP1. […] This absence of binding was used to design several chimeric LAMP1 proteins in which one or several of the LAMP1 domains (Loop1-Loop4) in the human construct were replaced by the murine counterpart. The absence of binding once the binding site of the antibody was replaced by the murine counterpart allowed for identification of the antibody binding side.
Secreted LAMP1 proteins described in example 6.2 were used to identify the binding domain to anti-LAMP1 mAbs by ELISA.

hLAMP1_ΔGYQTI = biological target: T3, hLAMP1_ΔGYQTI; assay: Binding onto membrane-anchored human LAMP1 (293-F cells) by flow cytometry; details: pXL5626 hLAMP1_ΔGYQTI
Description: Different LAMP1 proteins were expressed at the cell membrane of HEK293 cells after transient expression from mammalian plasmids encoding the entire coding sequence of LAMP1 deleted of the intracellular lysosome-targeting motif GYQTI and substituted by a 5-Ala repeat sequence.
Two days post transfection cells were processed, analyzed by flow cytometry (Guava® easyCyte™ 8HT) as mentioned in example 4.7, and the mean fluorescence was recorded. This fluorescence represents a semi-quantitative assessment of binding.

Molecule	EC50 [1] [nM]	EC50 (nM) Mouse LAMP1 (Mouse LAMP1)	Binding call (hLAMP1_ΔGYQTI; Table 17 Experiment no1)	Mean fluorescence (hLAMP1_ΔGYQTI; Table 17 Experiment no1)	Binding call (hLAMP1_ΔGYQTI; Table 18)	Mean fluorescence (hLAMP1_ΔGYQTI; Table 18)	Binding call (hLAMP1_ΔGYQTI; Table 17 Experiment no2)	Mean fluorescence (hLAMP1_ΔGYQTI; Table 17 Experiment no2)
MAb2: murine monoclonal anti-LAMP1 antibody, VH SEQ ID NO: 8, VL SEQ ID NO: 12 (antibody, V domains shown, antibod fragment; antibody fragment) VH: QVQLQQSAAELARPGASVKMSCKASGYTFTSYTMHWVKQRPGQGLEWIGYFNPSSGYPEYNQKFKDKTTLTADKSSNTAFIQLNSLTSEDSAVYYCSRGYYYGSRGYALDFWGQGASVTVSS VL: NIVLTQSPVSLAVSLGQRATISCRASESVDINGNTFMHWYQQKPGQSPKLVIYAASNIESGVPARFSGSGSSTDFTFTIDPVEADDVATYYCQQNIEDPWTFGGGTKVEIK	6.3	do not show any binding; also recorded: No binding	binding	1183	Binding	757		
MAb1: murine monoclonal anti-LAMP1 antibody, VH SEQ ID NO: 1, VL SEQ ID NO: 5 (antibody, V domains shown, Antibody Fragment; antibody fragment) VH: QVQLQQSGAELVKPGASVKMSCKASGYIFTNYNIHWVKKSPGQGLEWIGAIYPGNGDAPYSQKFKDKATLTADKSSSTTYMQLSRLTSEDSAVYYCVRANWDVAFAYWGQGTLVSVSA VL: DIQMTQSPPSLSASLGGKVTITCKASQDIDRYMAWYQDKPGKGPRLLIHDTSTLQPGIPSRFSGSGSGRDYSFSISNLEPEDIATYYCLQYDNLWTFGGGTKLEIK	4.9	do not show any binding; also recorded: No binding	Binding	1748	Binding	914	Full binding	551
